Experimental data as given in article PMC11813886.
Values belong to the substance of their own block, whether it stands above or below them.

What was measured:
[1] = biological target: FHR-1_(1-3)::FHR-B4-5 hybrid protein (human | mouse); assay: AUC; sedimentation velocity, 48000 rpm, protein in PBS pH 7; c(s) distributions with SEDFIT; dimer to monomers
[2] = biological target: recombinant form of the native mouse FHR-B protein (rFHR-B) (mouse); assay: AUC; sedimentation velocity after exposure to pH 2.5 or pH 10.5 and dialysis back to physiological conditions
[3] = biological target: recombinant form of the native mouse FHR-B protein (rFHR-B) (mouse); assay: AUC; sedimentation velocity, 48000 rpm, protein in PBS pH 7; c(s) distributions with SEDFIT; dimer to monomers
FHR-B_(Del.1) (mouse) = assay: as above
[4] = biological target: FHR-B1-3::FHR-1_(4-5) hybrid protein (mouse | human); assay: as above
FHR-B_(Y162H) (mouse) = assay: as above
[5] = biological target: FHR-B_(T161A,I166V) (mouse); assay: as above
FHR-B_(Dup.1-3) (mouse) = assay: as above

Substance: FHR-1_(1-3)::FHR-B4-5 hybrid protein
stoichiometry N [1]: 2

Substance: recombinant form of the native mouse FHR-B protein (rFHR-B) (natural protein)
stoichiometry N [2]: 2
stoichiometry N [3]: 2

Substance: FHR-B_(Del.1) (domain or fragment)
stoichiometry N (FHR-B_(Del.1) (mouse)): 2

Substance: FHR-B1-3::FHR-1_(4-5) hybrid protein
stoichiometry N [4]: 2

More lines, now with the values ahead:

stoichiometry N (FHR-B_(Y162H) (mouse)): 2
Substance: FHR-B_(Y162H) (natural protein)

stoichiometry N [5]: 2
Substance: FHR-B_(T161A,I166V) (natural protein)

stoichiometry N (FHR-B_(Dup.1-3) (mouse)): 2
Substance: FHR-B_(Dup.1-3)
